The target of data set [1] is Hfq (UniProt P0A6X3). The data set is described as follows: lead acetate footprinting.
The target in data set [2] is Hfq (UniProt P0A6X3). In words: EMSA.

Chain of Hfq (P0A6X3 whole entry): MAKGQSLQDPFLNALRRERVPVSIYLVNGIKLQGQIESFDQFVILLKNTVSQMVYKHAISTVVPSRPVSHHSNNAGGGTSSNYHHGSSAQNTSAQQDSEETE

With “GCGCCAACGUCGCAUCUGGUUCUCAUCAUCGCGUAAUAUUGAUGAAACCUGCGGCAUCCUUCUUCUAUUGUGGAUGCUUUACAAUGAUUAAAAAAGCUUCGCUGCUGACGGCGUGUUCCGUCACGGCAUUUUCCGCUUGGGCACAGGAUACCAGCCCGGAUACUCUCGUCGUUACUGCUAACCGUUUUGAACAGCCGCGCAGCACUGUGCUUGCACCAACCACCGUUGUGACCCGUCAGGAUAU [btuB mRNA -80 to +161]”, the binding entry with Hfq [1] and with Hfq [2] was “binds” in each case.

(Values after paper doi:10.1101/2023.11.17.567546.)
